Experimental data: US20120213771A1 (CELLDEX THERAPEUTICS, published 2012)
Residue numbers refer to the chain shown, from its start. “And” between values parts separate entries of the source, which are not always exact repeats. Equal entries are not always repeated.

T1: recombinant purified human CD27 (human, UniProt P26842 20-191)
T1 construct: also called soluble or recombinant human CD27
T1 sequence: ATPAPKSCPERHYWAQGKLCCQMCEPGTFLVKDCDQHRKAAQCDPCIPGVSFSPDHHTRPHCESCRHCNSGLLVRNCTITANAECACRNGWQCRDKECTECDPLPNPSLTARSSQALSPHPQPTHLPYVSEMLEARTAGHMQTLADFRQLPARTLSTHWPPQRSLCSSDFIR

B1: 3H8-1B11 (antibody, V domains shown)
VH: EVQLVESGGGLVQPGGSLRLSCAASGFTFSSYWMAWVRQAPGKGLEWLGNIKQDGSEKYYVDSVKGRFTISRDNAKNSLYLQMNSLRAEDTAVYYCVRELGMDWYFDLWGRGTLVTVSS
VL: EIVLTQSPATLSLSPGERATLSCRASQSVDSYLAWYQQKPGQAPRLLIYDASNRATGIPARFSGSGSGTDFTLTISNLEPEDFAVYYCQQRSNWPPTFGQGTKVEIK
notes: Human IgG from hybridoma
B2: 1G5-1B9 (antibody, V domains shown)
VH: QVQLVESGGGVVQPGRSLRLSCAASGFSFSSYGMHWVRQAPGKGLEWVALLWYDGSHKDFADSVKGRFTISRDNSKNTLDLQMNSLRAEDTAVYYCAREGLAVPGHWYFDLWGRGTLVTVSS
VL: AIQLTQSPSSLSASVGDRVTITCRASQGISSALAWYQQKPGKAPKLLIYDASSLESGVPSRFSGSGSGTDFTLTISSLQPEDFATYYCQQFNTYPRTFGQGTKVEIK
notes: Human IgG from hybridoma
B3: 1F5-1H5 (antibody, V domains shown)
VH: QVQLVESGGGVVQPGRSLRLSCAASGFTFSSYDMHWVRQAPGKGLEWVAVIWYDGSNKYYADSVKGRFTISRDNSKNTLYLQMNSLRAEDTAVYYCARGSGNWGFFDYWGQGTLVTVSS
VL: B2 VL with A1D, L4M, S31R, A32W, G41E, L46S, D50A, E55Q, F91Y
notes: Fully human IgG from HuMAb mouse hybridoma, protein A purified; Human IgG1 is used as its isotype control; also called mAb 1F5; anti-CD27 mAb 1F5
B4: 1H8-B4 (antibody, V domains shown)
VH: QVQLVESGGGVVQPGRSLRLSCAASGFTFNIYDMHWVRQAPGKGLEWVAVIWYDGSNQYYADSVKGRFTISRDNSKNTLYLQMNILRAEDTAVYYCARGTHWGYFDYWGQGTLVTVSS
VL: B2 VL with A1D, L4M, A32W, G41E, L46S, D50A, S53N, E55Q, F91Y, T93S
notes: Human IgG from hybridoma
B5: 3H12-1E12 (antibody, V domains shown)
VH: B3 VH with A24T, R87G, A88D
VL: B2 VL with A1D, L4M, S31R, A32W, G41E, L46S, D50A, E55Q, F91Y
notes: Human IgG from hybridoma; Two subclones (3H12-1C8 and 3H12-1E12) are both called 3H12; also called 3H12-1C8
B6: 2G9-1D11 (antibody, V domains shown)
VH: QVQLVESGGGVVQPGRSLRLSCAASGFTLSSHDIHWVRQAPGKGLEWVAVIWNDGSNKYYADSVKGRFTISRDNSTNSLFLQMNSLRAEDTAVYYCVRGTADLEHWDQGTLVTVSS
VL: DIQMTQSPSSLSASVGDRVTITCRASQGISSWLAWYQQKPEKAPKSLIYAASSLQSGVPSRFSGSGSGTDFTLTISSLQPEDFATYYCQQYNSYPLTFGGGTKVEIK
notes: Human IgG from hybridoma
B7: 3A10-G10 (antibody, V domains shown)
VH: QVQLVESGGGVVQPGRSLRLSCAASGFTFSHYGMHWVRQAPGKGPEWVAIIWYDGSNKYYADSVKGRFTISRDNSKNTLDLQMNSLRAEDTAVYYCARDGWTTMVRGLNVFDIWGQGTMVTVSS
VL: B6 VL with G28D, L96P, G100Q, K103R, V104L
notes: Human IgG from hybridoma; also called 3A10-1G10
B8: 2C2-1A10 (antibody, V domains shown)
VH: B6 VH with L29F, H32Y, R98G
VL: B6 VL
notes: Human IgG from hybridoma

molecular target: T1, recombinant purified human CD27; assay: ELISA on CD27-coated plates, half-max binding (C value of 4-parameter fit)
Description: Microtiter plates were coated with soluble or recombinant human or macaque CD27 in PBS, and then blocked with 5% bovine serum albumin in PBS. Protein A purified human mAbs and an isotype control were added at […] concentrations and incubated at 37° C. The plates were washed with PBS/Tween and then incubated with a goat-anti-human IgG Fc-specific polyclonal reagent conjugated to alkaline phosphatase at 37° C. After washing, the plates were developed with pNPP substrate (1 mg/ml), and analyzed at OD 405-650 using a microtiter plate reader.

Row | EC50 | Binder
1 | 0.46 nM and 0.069 µg/mL | B1
2 | 0.49 nM and 0.074 µg/mL | B2
3 | 0.39 nM and 0.059 µg/mL | B3
4 | 0.43 nM and 0.064 µg/mL | B4
5 | 0.57 nM and 0.085 µg/mL | B5
6 | 0.43 nM and 0.064 µg/mL | B6
7 | 0.63 nM and 0.094 µg/mL | B7
8 | 0.3 nM and 0.045 µg/mL | B8

molecular target: T2, purified recombinant monkey (macaque) CD27 (macaque); assay: ELISA on plate-bound monkey CD27, half-max binding
T2 construct: The paragraph speaks of cynomolgus macaques as the model; the protein itself is only called macaque / monkey CD27; Captured with anti-Flag antibody in one format; also called monkey CD27

Row | EC50 [µg/mL] | Binder
9 | 0.065 | B1
10 | 0.065 | B2
11 | 0.12 | B3
12 | 0.105 | B4
13 | 0.123 | B5
14 | 0.069 | B6
15 | 0.034 | B8
